Here are results for 5 molecules from patent publication US20220204603A1 (PHARMABCINE, published 2022).

Assay [1] has as its target T1, biotinylated human Ang2 protein (human, UniProt O15123 19-496, limits assumed, biotinylated (sites not given)).
T1 construct: also called hAng2
T1 sequence (looked up): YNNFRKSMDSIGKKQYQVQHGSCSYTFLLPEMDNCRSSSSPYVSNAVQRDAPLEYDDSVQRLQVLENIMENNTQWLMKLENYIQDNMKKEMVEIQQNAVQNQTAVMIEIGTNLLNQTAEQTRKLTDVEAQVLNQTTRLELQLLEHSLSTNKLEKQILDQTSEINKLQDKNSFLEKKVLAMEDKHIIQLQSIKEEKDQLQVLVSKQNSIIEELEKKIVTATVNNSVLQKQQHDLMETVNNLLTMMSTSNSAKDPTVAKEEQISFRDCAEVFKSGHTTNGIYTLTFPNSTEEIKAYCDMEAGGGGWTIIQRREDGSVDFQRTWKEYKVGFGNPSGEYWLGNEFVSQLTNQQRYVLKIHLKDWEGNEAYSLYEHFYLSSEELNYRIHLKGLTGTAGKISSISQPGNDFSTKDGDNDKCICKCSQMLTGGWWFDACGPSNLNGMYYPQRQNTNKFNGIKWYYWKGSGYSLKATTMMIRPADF
Briefly: competition ELISA: antibody preincubated with biotinylated hAng2, binding to coated human Tie2-Fc. On the procedure:
(§1) 1 μg/ml (100 μl per well) of a human Ti32-Fc (R&D Systems, 313-TI) or mouse Tie2-Fc (R&D Systems, 762-T2-100) solution, an integrin α3/β1 solution (R&D systems, 2840-A3-050), or an integrin α5/β1 solution (R&D systems, 3230-A5-050) was added to a 96-well immunoplate (Nunc, US) and then allowed to stand overnight at 4° C. for adsorption. The next day, the plate was washed four times with PBS containing 0.05% Tween-20 (hereinafter, referred to as PBST), and 200 μl of a 2% BSA/PBST solution was added to each well and then allowed to stand at room temperature for 1 hour to perform blocking. Anti-Ang2 candidate antibodies were serially diluted 4-fold at a maximum of 1000 nM, and biotinylated human Ang2 protein was made to a final concentration of 100 ng/mL or 625 ng/mL, followed by previous binding at room temperature for 1 hour. […] The plate was washed three times with PBST, 100 μl of HRP-conjugated streptavidin (R&D Systems, DY998) diluted to 1:200 was added to allow a reaction to occur at room temperature for 1 hour, thereby inducing binding, and the plate was washed four times with PBST, followed by color development using 100 μl of a TMB substrate reagent. The color development reaction was stopped by adding 50 μl of 2N H₂SO₄, and a Sunrise microplate reader (TECAN, CH) was used to measure specific absorbance OD₄₅₀ (FIGS. 4 and 5).

For assay [2], the target named is T2, mouse Ang2 (construct not stated) (mouse, UniProt O35608 19-496, limits assumed).
T2 construct: also called mAng2
T2 sequence (looked up): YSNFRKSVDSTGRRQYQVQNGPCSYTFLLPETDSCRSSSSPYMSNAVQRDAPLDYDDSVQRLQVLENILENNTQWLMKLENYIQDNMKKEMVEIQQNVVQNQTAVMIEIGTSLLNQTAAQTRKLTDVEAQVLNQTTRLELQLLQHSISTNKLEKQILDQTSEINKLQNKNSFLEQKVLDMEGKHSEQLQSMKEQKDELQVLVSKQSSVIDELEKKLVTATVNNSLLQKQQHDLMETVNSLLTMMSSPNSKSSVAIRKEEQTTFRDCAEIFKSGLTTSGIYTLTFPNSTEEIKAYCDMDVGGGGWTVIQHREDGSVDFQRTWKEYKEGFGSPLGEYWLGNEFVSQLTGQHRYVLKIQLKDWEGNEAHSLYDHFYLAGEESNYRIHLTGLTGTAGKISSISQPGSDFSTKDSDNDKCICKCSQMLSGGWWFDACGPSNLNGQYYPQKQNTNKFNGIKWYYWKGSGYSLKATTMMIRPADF
Description: SPR Biacore T200, antibody captured on protein A chip, Ang2 as analyte, 1:1 model. The protocol: (§2) To analyze the binding affinity of the selected anti-Ang2 antibodies, affinity analysis for human Ang2 and mouse Ang2 was performed using BIACORE® T200 (GE Healthcare). A protein A sensor chip was used, and an experiment was conducted in accordance with the manufacturer's manual. Detailed analysis conditions are as follows. 2000 response units (RU) of protein A were immobilized, 25 RU of anti-Ang2 antibody candidates were used for binding, and various concentrations of human Ang2 and mouse Ang2 were allowed to bind. The starting concentrations for analysis are 100 nM and 150 nM, respectively. The analysis proceeded at a flow rate of 30 μl/min, the binding and dissociation time of human Ang2 was measured as 300 seconds and 2000 seconds, respectively, and the binding and dissociation time of mouse Ang2 was analyzed as 300 seconds and 1000 seconds, respectively. Analysis was performed using a 1:1 binding model as an analytical model.
In general terms: SPR reads the build-up and loss of mass on a sensor chip optically.

The target of assay [3] is T3, human Ang2 (construct not stated) (human, UniProt O15123 19-496, limits assumed).
T3 construct: also called hAng2
T3 sequence (looked up): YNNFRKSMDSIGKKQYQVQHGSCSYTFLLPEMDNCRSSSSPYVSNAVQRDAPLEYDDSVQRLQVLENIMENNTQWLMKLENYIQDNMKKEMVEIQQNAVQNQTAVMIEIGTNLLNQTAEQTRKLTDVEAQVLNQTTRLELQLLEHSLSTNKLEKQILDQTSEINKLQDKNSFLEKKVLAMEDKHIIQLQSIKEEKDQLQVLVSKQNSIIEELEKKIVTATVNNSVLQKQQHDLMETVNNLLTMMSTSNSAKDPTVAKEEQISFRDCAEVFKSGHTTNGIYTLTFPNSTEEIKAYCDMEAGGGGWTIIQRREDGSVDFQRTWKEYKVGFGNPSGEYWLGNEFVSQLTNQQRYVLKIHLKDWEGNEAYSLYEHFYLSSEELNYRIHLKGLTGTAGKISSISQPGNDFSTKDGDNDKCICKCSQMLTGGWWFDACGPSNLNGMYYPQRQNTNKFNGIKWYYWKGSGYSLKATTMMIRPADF
The assay is described as above. On the procedure:
as §2

In assay [4] the target is T2, mouse Ang2 (construct not stated). Briefly: competition ELISA: antibody preincubated with mAng2, binding to coated mouse Tie2-Fc. On the technique in general: In an ELISA, binding on a coated surface is turned into a signal by an enzyme label.
Assay [5] deals with T3, human Ang2 (construct not stated). Description: cell-based or functional assay.
The target in assay [6] is T1, biotinylated human Ang2 protein. Description: competition ELISA: antibody preincubated with biotinylated hAng2, binding to coated integrin α5/β1. The protocol: as §1
Assay [7] shares this target. Description: competition ELISA: antibody preincubated with biotinylated hAng2, binding to coated integrin α3/β1. The protocol:
as §1

B1: No. 3 anti-Ang2 antibody (IgG) (antibody, V domains shown)
VH: QMQLVQSGGGLVQPGRSLKLSCAASGFSFDDYAMHWVRQAPGKGLEWVATIKDDGSQTYYVDSVKGRFTISRDNAKSSLFLQMNSLRAEDTAVYYCTTEGLMNGLHFDMWGQGTMVTVSS
VL: LVLTQPPSVSGAPGQGVTISCTGSSSNIGAGYDVHWYQQFPGTAPKLLISGNNNRPSGLPDRFSGSKSGTSASLAITGLQAEDEADYYCQSYDSRLGVVFGGGTKLTVLG
notes: IgG form: VH cloned into Invivogen pfusess-hchg1 (heavy chain constant region), VL into Invivogen pfuse2ss-hclk (light chain constant region); Expressed in Expi293F, purified on Protein A; also called 1D10
Turning to B1, the IC50 (usually the concentration that inhibits the measured activity by half) in assay [1] came out at 0.491 nM; in assay [4] it was 5.02 nM; in assay [6], 1.53 nM; in assay [7], 2.5 nM. Further, the Kd (as a rule, the equilibrium constant for the complex coming apart) in assay [2] came to 0.538 nM; in assay [3], 0.127 nM. Further, the off-rate (koff) – broadly, a measure of how fast the partners let go of each other – is 8.53e-05 s⁻¹ in assay [2] and 4.22e-05 s⁻¹ in assay [3]. The kon (commonly the rate constant with which the complex forms) in assay [2] was found to be 158000 M⁻¹ s⁻¹; in assay [3], 334000 M⁻¹ s⁻¹. Moreover, the “IC50 of Tie2 phosphorylation (Phospho-Tie2 ELISA) in human Tie2-overexpressing cells treated with human Ang2 (5 µg/ml) preincubated with antibody” value (“IC50 of Tie2 phosphorylation” for short) in assay [5] worked out at 8.53 nM.

B2: No. 4 anti-Ang2 antibody (IgG) (antibody, V domains shown)
VH: QVQLVESGAEVKRPGESLRISCKTSGYSFTSYWIHWVRQMPGKELEWMGSIYPGNSDTRYSPSFQGHVTISADSSSSTAYLQWSSLKASDTAMYYCTTEGLMNGLHFDMWGQGTMVTVSS
VL: DIVMTQTPLSLPVTPGEPASISCRSSQSLLHSLGDNYLDWYLQKPGQSPQLLIYLGSKRAAGVPDRFSGSGSGTDFTLKISRVEAEDVGVYYCMQSLQTPPYTFGQGTKLEIKR
notes: IgG form: VH cloned into Invivogen pfusess-hchg1, VL into Invivogen pfuse2ss-hclk; also called 2D8
With B2, the IC50 is 0.462 nM in assay [1], 4.54 nM in assay [4], 1.57 nM in assay [6] and 2.42 nM in assay [7]. The Kd was 0.45 nM in assay [2] and 0.217 nM in assay [3]. The koff in assay [2] was 7.05e-05 s⁻¹; in assay [3], 5.93e-05 s⁻¹. Also, the kon is 157000 M⁻¹ s⁻¹ in assay [2] and 273000 M⁻¹ s⁻¹ in assay [3]. In addition, the “IC50 of Tie2 phosphorylation” value in assay [5] stood at 12.3 nM.

B3: No. 46 anti-Ang2 antibody (IgG) (antibody, V domains shown)
VH: QVQLVESGGGLVQPGRSLRLSCAASGFTFDDCAMHWVRQAPGKGLEWVSGISGNSKNVAYADSVKGRFSISRDDAKNSLYLQMNSLRAEDTAVYYCARDPAYSQFDYWGQGTLITVSS
VL: QSALTQPPSLSATPGQRVTISCSGSSSNVGGYPVNWYQQVPGAAPKLLMYTDYKRPSGVPDRFFGSKSGTSASLAISGLQSEDEADYYCATWDDNLNGYVFGTGTKVTVLG
notes: IgG form: VH cloned into Invivogen pfusess-hchg1, VL into Invivogen pfuse2ss-hclk; also called 3C6
As for B3, the IC50 in assay [1] was determined as 0.337 nM; in assay [4] it was 5.25 nM; in assay [6], 1.9 nM; in assay [7], 4.39 nM. For the same molecule, the figures for the Kd in assay [2] and in assay [3] were 0.193 nM and 0.314 nM, respectively. Also, the koff in assay [2] was 8.94e-05 s⁻¹; in assay [3], 8.62e-05 s⁻¹. Besides, the kon came to 465000 M⁻¹ s⁻¹ in assay [2] and 274000 M⁻¹ s⁻¹ in assay [3]. Moreover, the “IC50 of Tie2 phosphorylation” value in assay [5] was found to be 10.1 nM.

B4: No. 41 anti-Ang2 antibody (IgG) (antibody, V domains shown)
VH: QVQLVESGGGLVQPGGSLRLSCEASGFAFGRYEMNWVRQAPGKGLEWIAYIDTGGGAKVYADSVKGRFTISRDDSKNSLYLQMNSLRAEDTAVYYCTTEGLMNGLHFDMWGQGTMITVSS
VL: DIQMTQSPSTLSASVGDRVAITCRASQAISTWLAWYQQKPGKAPKLLIYTASTLESGVPSRFSGSGSGTDFTLTINSLQPDDFATYYCQQLNSYPYTFGGGTKVEIKR
notes: IgG form: VH cloned into Invivogen pfusess-hchg1, VL into Invivogen pfuse2ss-hclk; also called 2B2
As to B4, the IC50 is 0.475 nM in assay [1], 3.98 nM in assay [4], 1.49 nM in assay [6] and 2.43 nM in assay [7]. For the same molecule, the Kd in assay [2] stood at 0.328 nM; in assay [3], 0.243 nM. Further, the koff was determined as 9.47e-05 s⁻¹ in assay [2] and 7.77e-05 s⁻¹ in assay [3]. For the same molecule, the results for the kon in assay [2] and in assay [3] were 289000 M⁻¹ s⁻¹ and 320000 M⁻¹ s⁻¹, respectively. In assay [5], the “IC50 of Tie2 phosphorylation” value was 11 nM.

B5: No. 8 anti-Ang2 antibody (IgG) (antibody, V domains shown)
VH: QVQLVESGGGLVKPGGSLRLSCAASGFTFSSYSMNWVRQAPGKGLEWVSSISASDGATYYADSVRGRFTISRDNSRSTLYLQMNSLRAEDTAVYYCAKILAGYSGPMGGMDVWGQGTTVTVSS
VL: DIQMTQSPSSLSASVGDRVTITCRASRDISNYLAWYQQKPGKAPKSLIYGASNLQSGVSSQFSGSGSGTDFTLTINSLQPEDSATYYCQQYYSYPLTFGGGTKVDIKR
notes: IgG form: VH cloned into Invivogen pfusess-hchg1, VL into Invivogen pfuse2ss-hclk; also called 3A10
Regarding B5, the concentration for half-maximal inhibition (IC50) was determined as 0.495 nM in assay [1], 4.83 nM in assay [4], 1.89 nM in assay [6] and 4.68 nM in assay [7]. For the same molecule, the Kd in assay [2] was determined as 0.463 nM; in assay [3], 0.163 nM. In addition, the koff is 6.69e-05 s⁻¹ in assay [2] and 4.37e-05 s⁻¹ in assay [3]. The figures for the kon in assay [2] and in assay [3] were 144000 M⁻¹ s⁻¹ and 268000 M⁻¹ s⁻¹, respectively. Besides, the “IC50 of Tie2 phosphorylation” value in assay [5] stood at 20.2 nM.
